Source: publication PMC5852640

Tests used:
[1] = molecular target: BG505 SOSIP.664 HIV-1 envelope glycoprotein trimer (HIV-1 (BG505, clade A)); assay: SEC; purified Drug Substance of the 50 L Confirmation, 200 L Demonstration and 200 L cGMP runs; SEC / SE-HPLC; details in SOM Methods
[2] = molecular target: BG505 SOSIP.664 HIV-1 envelope glycoprotein trimer (HIV-1 (BG505, clade A)); assay: negative-stain electron microscopy; NS-EM imaging of the purified Drug Substance of the three production runs; details in SOM Methods

BG505 SOSIP.664 HIV-1 envelope glycoprotein trimer (complex)
stoichiometry N [1]: 3 | stoichiometry N [2]: 3
